Experimental data: WO2016002189A1 (dated 2016)

What was measured:
proglucagon = target: T1, proglucagon (Homo sapiens (Human), UniProt P01275 21-180); assay: epitope assay (chemiluminescent immunoassay)
T1 construct: Native protein in culture supernatants or HPLC fractions of human duodenal cancer cell lines, not purified recombinant protein; also called proglucagon protein

[1] = target: T2, human GLP-2 (manufactured by Yanaihara Laboratories) (human, UniProt P01275 146-178); assay: competitive ELISA with biotinylated proglucagon (111-144) as labelled antigen
T2 construct: also called glucagon-like peptide-2
T2 peptide (looked up): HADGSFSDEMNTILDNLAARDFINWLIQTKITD

[2] = target: T3, human GLP-1 (manufactured by Yanaihara Laboratories) (human, UniProt P01275 98-127, limits assumed); assay: as above
T3 construct: also called glucagon-like peptide-1
T3 peptide (looked up): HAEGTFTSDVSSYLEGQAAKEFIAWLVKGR

[3] = target: T4, human glucagon (manufactured by Yanaihara Laboratories) (human, UniProt P01275 53-81); assay: as above
T4 construct: Glucagon is only the 29-residue hormone cut from it
T4 sequence (P01275 53-81): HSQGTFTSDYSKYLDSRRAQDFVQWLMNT

[4] = target: T5, peptide consisting of amino acid residues 111 to 144 of proglucagon; assay: ELISA screening of hybridomas against the proglucagon peptides
T5 construct: Synthetic peptide; also called proglucagon (111-144); proglucagon 111-144 antigen
T5 peptide: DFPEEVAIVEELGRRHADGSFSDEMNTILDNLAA

T1 sequence (P01275 21-180): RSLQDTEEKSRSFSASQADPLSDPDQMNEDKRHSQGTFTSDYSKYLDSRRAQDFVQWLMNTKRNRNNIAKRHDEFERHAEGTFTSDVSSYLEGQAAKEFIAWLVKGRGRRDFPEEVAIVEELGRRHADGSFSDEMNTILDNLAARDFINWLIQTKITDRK

B1: SCC-MGD-913Ab (antibody, V domains shown)
VH: DVKLVESGGGLVKPGGSLKLSCAASGFTFSSFAMTWVRQTPEKRLEWVATISNGGSYTYYPDSVKGRFTISRDNAKNTLYLQMSSLRSEDTAMYYCTRDGAGKGFPLDYWGQGTTLTVSS
VL: NILLTQSPSSLAVSAGEKVTMSCKSSQSVFYSSNQKNYLAWYQQKPGQSPKLLIYWASTRESGVPDRFTGSGSGTDFTLTISSVQAEDLAIYYCHQYFSSLTFGAGTKLELK
notes: Mouse hybridoma monoclonal from immunisation with the proglucagon 111-144 peptide
- binding result (proglucagon): binds
- binding result [1]: no binding
- binding result [2]: no binding
- binding result [3]: no binding
- binding result [4]: binds
